Several values for one entry are separate records, joined by “and”; a condition that tells them apart may be missing. Identical values can stand only once.
Columns and labels:
[1] = target: T1, recombinant human tau protein, isoform 2N4R (Tau-441) (human, UniProt P10636-8 1-441); assay: SPR, sdAb stored at 4 C, 30 days after IMAC purification
T1 construct: Bought

[2] = target: T1, recombinant human tau protein, isoform …; assay: SPR, sdAb stored at 4 C, 34 days after IMAC purification
[3] = target: T1, recombinant human tau protein, isoform …; assay: SPR, sdAb stored at 4 C, 42 days after IMAC purification
[4] = target: T1, recombinant human tau protein, isoform …; assay: SPR, sdAb stored at 4 C, 55 days after IMAC purification
[5] = target: T1, recombinant human tau protein, isoform …; assay: SPR (Biacore T200), sdAb over immobilized antigen, steady state fit
Description: (§1) Surface Plasmon Resonance (SPR): All binding assays for Tau15 and Tau81 were carried out at 25° C. on a Biacore™ T200 instrument (GE Healthcare). […] The running buffer for all SPR experiments was HBS-EP+ (10 mM HEPES, 150 mM NaCl, 3 mM EDTA, pH 7.4, 0.05% surfactant P20; GE Healthcare). The sdAb were injected at 20 μL/min for 3 min with a dissociation time of 7 min for the test run, and at 20 μL/min for 2 min with a dissociation time of 6 min for the steady state analysis. Data was analyzed using the Biacore T200 evaluations software Version 2.0.
(§2) The KD value for the interaction between Tau15 and Tau81 sdAb and immobilized tau were derived by fitting the data to a steady state model and are reported in Table 1. […] Size exclusion chromatograms (FIG. 4) confirmed that Tau15 and Tau81 were monomeric.

[6] = target: hyperphosphorylated tau (tau-p; University of Victoria); assay: as above
Description: as §1, §2

[7] = target: T1, recombinant human tau protein, isoform …; assay: SPR (Biacore 3000), over immobilized Tau-441, duplicate injection
Description: (§3) Surface Plasmon Resonance (SPR): All binding assays for DH-Tau15 and Fc-Tau15 were carried out at 25° C. on a Biacore™ 3000 instrument (GE Healthcare). […] The running buffer for all SPR experiments was HBS-EP+ (10 mM HEPES, 150 mM NaCl, 3 mM EDTA, pH 7.4, 0.05% surfactant P20; GE Healthcare). The antibodies were injected at 20 μL/min for 2 min with a dissociation time of 30 min. Data was analyzed using the Biacore 3000 BIAevaluations software Version 4.1.

[8] = target: T1, recombinant human tau protein, isoform …; assay: SPR (Biacore 3000), over immobilized Tau-441
Description: as §3

T1 sequence (P10636 other isoform, or with tags, fused parts or gaps limits assumed): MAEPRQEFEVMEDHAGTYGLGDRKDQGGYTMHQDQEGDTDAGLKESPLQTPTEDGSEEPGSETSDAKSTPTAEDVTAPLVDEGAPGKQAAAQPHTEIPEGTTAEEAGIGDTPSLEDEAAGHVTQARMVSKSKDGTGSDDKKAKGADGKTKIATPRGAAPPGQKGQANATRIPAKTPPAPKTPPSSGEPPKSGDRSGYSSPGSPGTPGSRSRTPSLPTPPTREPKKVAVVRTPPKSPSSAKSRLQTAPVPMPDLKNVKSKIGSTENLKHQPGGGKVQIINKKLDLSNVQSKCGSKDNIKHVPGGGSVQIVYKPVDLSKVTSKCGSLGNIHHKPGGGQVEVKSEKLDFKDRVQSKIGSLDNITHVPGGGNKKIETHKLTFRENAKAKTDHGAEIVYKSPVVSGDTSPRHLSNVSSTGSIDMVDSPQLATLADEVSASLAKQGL

B1: Tau81 (VHH)
VHH: QVQLVESGGGLVQPGGSLKLSCAASGFTGDHYAMSWVRQAPGKGLEWVSTIYSYSPNTYYVDSVKDRFTISLDNAKNTLYLQMNSLKPEDTAVYYCAADLEVAEYYAYWGQGTQVTVSS
notes: Llama single-domain antibody with VH hallmark residues in FR2; mainly monomeric by SEC; also called 7Tau81; sdAb Tau81; not shown: C-terminal cmyc and His6 tags (pSJF2H vector); OmpA leader removed on secretion
Question: How did the Kd [1] turn out when B1 was run?
Answer: 105 nM

Question: What about the Kd [2] of the same binder?
Answer: 175 nM

Question: What about the Kd [3] of the same binder?
Answer: 660 nM

Question: And the Kd [4]?
Answer: 507 nM

Question: And the Kd [5]?
Answer: 820 nM

Question: And the Kd [6]?
Answer: 745 nM

B2: Tau15 (VHH)
VHH: QVKLEESGGGLVQPGGSLRLSCAASGFTFSNFAMTWVRQSPGKGLEWVSAIDNDGGRTSYSDSVKGRFTISRDNAKNTLYLQMNSLKPEDTAMYYCAAMNLATRKWELWGQGTQVTVSS
notes: Llama single-domain antibody with VH (not VHH) hallmark residues in FR2; monomeric by SEC; expressed in E. coli periplasm; also called 3Tau15; sdAb Tau15; not shown: C-terminal cmyc and His6 tags (pSJF2H vector); OmpA leader removed on secretion
Question: What does the source list for B2?
Answer: Kd [1]: 605 nM; Kd [2]: 820 nM; Kd [3]: 534 nM; Kd [4]: 590 nM; koff [7]: 0.0632 s⁻¹ and 0.0667 s⁻¹; Kd [5]: 699 nM; Kd [6]: 622 nM

B3: dimeric human hinge Tau15 (DH-Tau15) (VHH)
VHH: B2 VHH
notes: dimer through the hinge; also called dimeric hinge Tau15; hinge dimer
Question: Which “fold slower off rate than monomeric Tau15” value [8] does the source give for B3 here?
Answer: ~1000 fold

Question: What about the koff [7] of the same binder?
Answer: 4.27e-05 s⁻¹ and 3.45e-05 s⁻¹

Source: US20170296680A1 (NATIONAL RESEARCH COUNCIL OF CANADA, published 2017)
